Data taken from patent US6624144B1, “Matrix metalloproteinase inhibitors and down-regulators” (CTT Cancer Targeting Technologies Oy, priority 1998, dated 2003).
Bridge positions count the residues as written; N and C are the ends. Ends that are not written are not given here.

Assays:
APMA-activated MMP-9 [1] = biological target: T1, APMA-activated MMP-9 (Homo sapiens, UniProt P14780); assay: [125I]-gelatin degradation by APMA-activated MMP-9; type: biochemical; conditions: 10 μg/ml (FIG. 2)
T1 construct: from tissue; host or cells: human neutrophils
T1 sequence (P14780 107-707 limits assumed): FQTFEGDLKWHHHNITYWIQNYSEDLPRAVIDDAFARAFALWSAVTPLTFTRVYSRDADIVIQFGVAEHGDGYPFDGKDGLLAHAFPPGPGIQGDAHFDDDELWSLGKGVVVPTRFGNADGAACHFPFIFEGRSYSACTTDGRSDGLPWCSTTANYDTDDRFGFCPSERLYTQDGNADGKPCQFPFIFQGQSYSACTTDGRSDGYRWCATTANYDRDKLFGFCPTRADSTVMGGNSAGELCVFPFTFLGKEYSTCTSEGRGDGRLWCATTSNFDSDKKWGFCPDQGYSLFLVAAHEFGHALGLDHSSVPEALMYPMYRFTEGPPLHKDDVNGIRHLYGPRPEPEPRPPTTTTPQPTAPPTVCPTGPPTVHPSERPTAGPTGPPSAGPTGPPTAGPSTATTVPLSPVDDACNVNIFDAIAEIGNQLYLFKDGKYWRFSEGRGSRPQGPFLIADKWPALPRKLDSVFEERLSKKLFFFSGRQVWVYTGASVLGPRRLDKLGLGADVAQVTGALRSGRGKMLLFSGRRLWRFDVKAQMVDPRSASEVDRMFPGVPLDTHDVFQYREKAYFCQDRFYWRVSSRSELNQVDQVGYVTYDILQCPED
Description: (§1) ProMMP-9 was purified from human neutrophils and activated with aminophenyl mercuric acetate (APMA) essentially as described by Hibbs et al. (1985). For the selection of MMP-9 binding phage, APMA-activated MMP-9 was coated on microtiter wells overnight at 4° C. using a concentration of 1 μg/ml, after which the […] were saturated with 5 % bovine serum albumin. In the first panning, the library was incubated overnight at 4° C. in 50 mM Tris-HCl/0.1 M NaCl buffer (pH 7.5) (TBS) containing 1% bovine serum albumin, and after extensive washing the bound phage were eluted with low pH buffer. In the subsequent pannings, the amplified phage were allowed to bind for 1 h at 22° C. […] The bound phage were quantitated by adding 50 ng per well of anti-M13 antibody (Pharmacia, Uppsala, Sweden) labeled with an Europium-chelate (Wallac Ltd., Turku, Finland). After incubation for 45 min followed by washing, the fluorescence was measured with 1230 Arcus fluorometer (Wallac Ltd., Turku, Finland).
(§2) For the gelatin and casein degradation assays, purified MMP-2 and MMP-9 (50-100 ng) were first incubated for 60 min with various concentrations of the peptide inhibitors, after which a 21 kDa β-casein (52 μM) or [^125I]-gelatin substrate was added. After incubation for 2 h at 22 ° C., degradation of the casein was analyzed by SDS gel electrophoresis. […]

proMMP-9 [2] = biological target: T2, proMMP-9 (Homo sapiens, UniProt P14780); assay: [125I]-gelatin degradation by proMMP-9 (autoactivating); type: biochemical; conditions: 10 μg/ml (FIG. 2)
T2 construct: from tissue; host or cells: human neutrophils
T2 sequence (P14780 20-707 limits assumed): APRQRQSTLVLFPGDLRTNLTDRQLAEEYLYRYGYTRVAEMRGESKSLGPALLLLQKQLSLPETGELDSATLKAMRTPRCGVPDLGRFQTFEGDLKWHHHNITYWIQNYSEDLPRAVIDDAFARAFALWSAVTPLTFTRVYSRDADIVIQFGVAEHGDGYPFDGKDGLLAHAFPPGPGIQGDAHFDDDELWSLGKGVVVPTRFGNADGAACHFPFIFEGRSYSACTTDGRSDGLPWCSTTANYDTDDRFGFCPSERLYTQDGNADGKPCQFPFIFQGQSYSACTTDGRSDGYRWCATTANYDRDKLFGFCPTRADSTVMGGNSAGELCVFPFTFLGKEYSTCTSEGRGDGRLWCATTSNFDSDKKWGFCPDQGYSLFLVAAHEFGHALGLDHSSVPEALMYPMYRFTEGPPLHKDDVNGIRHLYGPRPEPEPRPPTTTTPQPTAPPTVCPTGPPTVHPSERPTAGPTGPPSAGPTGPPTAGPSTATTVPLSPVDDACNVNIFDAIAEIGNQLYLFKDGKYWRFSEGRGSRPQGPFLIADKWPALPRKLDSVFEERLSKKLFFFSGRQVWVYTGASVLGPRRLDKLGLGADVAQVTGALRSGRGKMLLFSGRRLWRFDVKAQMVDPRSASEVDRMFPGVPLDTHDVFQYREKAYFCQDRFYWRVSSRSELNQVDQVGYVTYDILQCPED
Description: as §1, §2

APMA-activated MMP-2 [3] = biological target: T3, APMA-activated MMP-2 (Homo sapiens, UniProt P08253); assay: [125I]-gelatin degradation by APMA-activated MMP-2; type: biochemical; conditions: 10 μg/ml
T3 construct: endogenous in cells; host or cells: human gingival fibroblasts (serum-free culture medium)
T3 sequence (P08253 110-660): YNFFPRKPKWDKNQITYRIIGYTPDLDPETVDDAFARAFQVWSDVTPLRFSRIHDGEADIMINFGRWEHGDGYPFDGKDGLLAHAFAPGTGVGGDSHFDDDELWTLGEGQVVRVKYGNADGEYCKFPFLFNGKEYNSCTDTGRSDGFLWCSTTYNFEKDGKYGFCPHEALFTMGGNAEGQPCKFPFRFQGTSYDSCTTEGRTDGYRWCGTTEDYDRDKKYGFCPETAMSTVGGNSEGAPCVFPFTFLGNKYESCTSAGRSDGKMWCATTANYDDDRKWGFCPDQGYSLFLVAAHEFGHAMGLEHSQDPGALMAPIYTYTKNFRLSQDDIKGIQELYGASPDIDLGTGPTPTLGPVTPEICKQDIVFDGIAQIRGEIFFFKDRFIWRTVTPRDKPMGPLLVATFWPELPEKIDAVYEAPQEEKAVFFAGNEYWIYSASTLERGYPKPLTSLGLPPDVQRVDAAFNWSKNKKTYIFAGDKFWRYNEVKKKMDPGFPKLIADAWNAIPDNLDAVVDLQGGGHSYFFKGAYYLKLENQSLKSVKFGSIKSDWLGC
Description: (§3) For the gelatin and casein degradation assays, purified MMP-2 and MMP-9 (50-100 ng) were first incubated for 60 min with various concentrations of the peptide inhibitors, after which a 21 kDa β-casein (52 μM) or [^125I]-gelatin substrate was added. After incubation for 2 h at 22 ° C., degradation of the casein was analyzed by SDS gel electrophoresis. The degradation of [^125I]-gelatin was determined by counting radioactivity in the supernatant after precipitation of undegraded gelatin with 20% trichloroacetic acid.
(§4) proMMP-2 was purified from serum-free culture medium of human gingival fibroblasts.

proMMP-2 [4] = biological target: T4, proMMP-2 (Homo sapiens, UniProt P08253); assay: [125I]-gelatin degradation by proMMP-2; type: biochemical; conditions: 10 μg/ml
T4 construct: endogenous in cells; host or cells: human gingival fibroblasts (serum-free culture medium)
T4 sequence (P08253 30-660 limits assumed): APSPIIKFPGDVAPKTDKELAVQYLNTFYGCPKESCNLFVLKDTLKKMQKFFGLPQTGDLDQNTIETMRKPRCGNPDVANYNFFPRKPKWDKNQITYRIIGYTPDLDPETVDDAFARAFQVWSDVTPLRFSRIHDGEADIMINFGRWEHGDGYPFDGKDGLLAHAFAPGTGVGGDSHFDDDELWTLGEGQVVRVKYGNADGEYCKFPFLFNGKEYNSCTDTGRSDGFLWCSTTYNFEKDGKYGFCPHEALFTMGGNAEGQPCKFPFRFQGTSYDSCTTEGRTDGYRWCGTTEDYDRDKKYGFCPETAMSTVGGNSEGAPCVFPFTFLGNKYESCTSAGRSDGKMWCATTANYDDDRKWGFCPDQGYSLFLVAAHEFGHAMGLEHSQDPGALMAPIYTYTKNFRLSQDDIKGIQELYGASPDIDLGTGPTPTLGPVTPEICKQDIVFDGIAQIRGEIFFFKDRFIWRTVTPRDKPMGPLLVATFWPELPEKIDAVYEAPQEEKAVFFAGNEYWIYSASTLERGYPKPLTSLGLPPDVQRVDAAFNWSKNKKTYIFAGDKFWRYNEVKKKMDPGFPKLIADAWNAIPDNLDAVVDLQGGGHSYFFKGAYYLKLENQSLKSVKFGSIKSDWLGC
Description: as §3, §4

proMMP-2 [5] = biological target: T5, proMMP-2 (human, UniProt P08253 30-660); assay: cell-based or functional assay
T5 sequence (looked up): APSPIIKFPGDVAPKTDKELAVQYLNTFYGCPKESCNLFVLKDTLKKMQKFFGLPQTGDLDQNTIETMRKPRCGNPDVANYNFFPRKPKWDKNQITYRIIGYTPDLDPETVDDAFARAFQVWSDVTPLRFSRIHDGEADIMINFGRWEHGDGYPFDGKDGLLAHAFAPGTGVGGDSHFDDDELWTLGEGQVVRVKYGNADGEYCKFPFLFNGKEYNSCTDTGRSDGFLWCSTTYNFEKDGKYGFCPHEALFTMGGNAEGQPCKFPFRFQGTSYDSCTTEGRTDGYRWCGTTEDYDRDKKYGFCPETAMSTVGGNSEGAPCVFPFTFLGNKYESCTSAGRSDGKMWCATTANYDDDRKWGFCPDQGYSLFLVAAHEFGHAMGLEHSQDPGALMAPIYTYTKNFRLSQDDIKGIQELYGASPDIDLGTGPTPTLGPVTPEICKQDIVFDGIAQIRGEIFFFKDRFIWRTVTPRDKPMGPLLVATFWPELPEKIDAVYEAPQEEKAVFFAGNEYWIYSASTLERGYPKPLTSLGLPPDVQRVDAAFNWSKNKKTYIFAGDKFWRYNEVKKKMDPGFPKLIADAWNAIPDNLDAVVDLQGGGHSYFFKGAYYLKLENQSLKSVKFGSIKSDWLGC

APMA-activated MMP-9 [6] = biological target: APMA-activated MMP-9 (human, UniProt P14780 94-707); assay: cell-based or functional assay
APMA-activated MMP-2 [7] = biological target: T6, APMA-activated MMP-2 (human, UniProt P08253 30-660); assay: cell-based or functional assay
T6 sequence (looked up): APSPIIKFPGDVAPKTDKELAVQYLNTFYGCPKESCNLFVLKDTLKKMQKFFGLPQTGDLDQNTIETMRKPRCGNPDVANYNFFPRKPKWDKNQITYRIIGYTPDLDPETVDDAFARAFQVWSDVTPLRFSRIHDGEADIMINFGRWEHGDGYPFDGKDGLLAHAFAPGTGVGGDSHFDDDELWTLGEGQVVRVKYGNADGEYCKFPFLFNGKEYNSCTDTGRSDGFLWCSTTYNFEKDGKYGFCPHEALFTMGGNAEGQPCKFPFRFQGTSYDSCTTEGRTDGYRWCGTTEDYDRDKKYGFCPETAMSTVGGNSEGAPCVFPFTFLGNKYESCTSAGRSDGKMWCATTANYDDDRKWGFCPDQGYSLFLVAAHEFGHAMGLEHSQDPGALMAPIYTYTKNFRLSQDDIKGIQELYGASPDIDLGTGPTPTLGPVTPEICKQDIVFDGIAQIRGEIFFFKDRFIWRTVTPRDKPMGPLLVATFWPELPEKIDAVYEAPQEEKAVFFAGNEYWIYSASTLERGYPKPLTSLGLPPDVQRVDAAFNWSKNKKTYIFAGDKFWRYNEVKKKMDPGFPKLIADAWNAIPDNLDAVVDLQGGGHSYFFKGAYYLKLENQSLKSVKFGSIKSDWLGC

proMMP-9 [8] = biological target: T7, proMMP-9 (human, UniProt P14780 20-707); assay: phage binding (attachment) assay
T7 construct: also called 92 kDa proMMP-9
T7 sequence (P14780 20-707): as the sequence (P14780 20-707 limits assumed) above

linear CRRHWGFEFC: linearized version of CRRHWGFEFC prepared by reducing and alkylating the cysteine residues (also: cysteines reduced and alkylated, alkylating agent not given here)
inhibitory activity against APMA-activated MMP-9 gelatinolysis (APMA-activated MMP-9 [1]): loss of inhibitory activity
inhibitory activity against proMMP-9 gelatinolysis (proMMP-9 [2]): loss of inhibitory activity
gelatinolysis by APMA-activated MMP-2 (APMA-activated MMP-2 [3]): virtually inactive
gelatinolysis by proMMP-2 (proMMP-2 [4]): virtually inactive

B1: cyclic CRRHWGFEFC synthetic peptide (peptide)
peptide: CRRHWGFEFC
modifications: disulfide 1-10 (inferred)
IC50, β-casein degradation (SDS-PAGE) (proMMP-2 [5]): 25 µg/mL
IC50, [125I]-gelatin degradation assay (APMA-activated MMP-9 [6]): ~10 µg/mL
IC50, β-casein degradation (SDS-PAGE) (APMA-activated MMP-2 [7]): ~25 µg/mL

B2: cyclic CTTHWGFTLC synthetic peptide (peptide)
peptide: CTTHWGFTLC
modifications: disulfide 1-10 (inferred)
IC50, β-casein degradation (SDS-PAGE) (proMMP-2 [5]): 5 µg/mL
IC50, β-casein degradation (SDS-PAGE) (APMA-activated MMP-2 [7]): ~5 µg/mL

B3: phage clone displaying CRRHWGFEFC (from the CX9 library) (peptide)
peptide: CRRHWGFEFC
notes: not shown: phage coat protein to which the peptide is fused
binding result (proMMP-9 [8]): no binding

B4: phage clone displaying CSLHWGFWWC (from the CX9 library) (peptide)
peptide: CSLHWGFWWC
notes: as for B3
binding result (proMMP-9 [8]): no binding
